One molecule from patent US20260139035A1 can be followed below.

The target of the assay is spike proteins of SARS-CoV-2 variants (614G, Alpha, Beta, Gamma, Delta, Kappa, Lambda, Mu, BA.1, BA.). As to the kind of experiment: cell-based or functional assay.

B1: 3-1 antibody (antibody, V domains shown)
VH: EVQLVQSGAEVKKPGESLKISCKGSGYIFTNYWIGWVRQMPGKGLEWMGIINPRDSDTRYSPSFQGQVTISTDKSINTAYLQWSSLKASDTAMYYCARQQGGFGDLGAYNWFDPWGQGTLVTVSS
VL: not shown
In the case of B1, the IC50, pseudovirus neutralization was less than 0.25 µg/mL.
